Experiments:
[1] = target: Maltose Binding Protein (MBP) (E. coli) [MBP: P0AEX9]; experiment: ELISA control without serum, antigen MBP
[2] = target: MBP-ABL (E. coli) [MBP: P0AEX9]; experiment: ELISA control without serum, antigen MBP-ABL
[3] = target: 38C13 IgM Id; experiment: ELISA control without serum, antigen 38C13 IgM Id

ELISA reading [1]: 0.055
ELISA reading [2]: 0.052
ELISA reading [3]: 0.09
Substance: Secondary Ab only (antibody)

Source: patent US20080107662A1
